Measured values taken from patent publication US20200087373A1 (UNIVERSITY OF COPENHAGEN, published 2020).
Ends that are not written are not given here. * marks the point of attachment. C18 diacid = O=C(O)CCCCCCCCCCCCCCCCC(=O)*; C16 diacid = O=C(O)CCCCCCCCCCCCCCC(=O)*; C14 diacid = O=C(O)CCCCCCCCCCCCC(=O)*; Palmitoyl = CCCCCCCCCCCCCCCC(=O)*; Lauroyl = CCCCCCCCCCCC(=O)*

B1: AT137 [hGIP(5-30)NH2-C16diacid/5] (peptide)
peptide: {C16 diacid}-TFISDYSIAMDKIHQQDFVNWLLAQK-NH2
SMILES: CC[C@H](C)[C@H](NC(=O)[C@H](CO)NC(=O)[C@H](Cc1ccc(O)cc1)NC(=O)[C@H](CC(=O)O)NC(=O)[C@H](CO)NC(=O)[C@@H](NC(=O)[C@H](Cc1ccccc1)NC(=O)[C@@H](NC(=O)CCCCCCCCCCCCCCC(=O)O)[C@@H](C)O)[C@@H](C)CC)C(=O)N[C@@H](C)C(=O)N[C@@H](CCSC)C(=O)N[C@@H](CC(=O)O)C(=O)N[C@@H](CCCCN)C(=O)N[C@H](C(=O)N[C@@H](Cc1c[nH]cn1)C(=O)N[C@@H](CCC(N)=O)C(=O)N[C@@H](CCC(N)=O)C(=O)N[C@@H](CC(=O)O)C(=O)N[C@@H](Cc1ccccc1)C(=O)N[C@H](C(=O)N[C@@H](CC(N)=O)C(=O)N[C@@H](Cc1c[nH]c2ccccc12)C(=O)N[C@@H](CC(C)C)C(=O)N[C@@H](CC(C)C)C(=O)N[C@@H](C)C(=O)N[C@@H](CCC(N)=O)C(=O)N[C@@H](CCCCN)C(N)=O)C(C)C)[C@@H](C)CC
B2: AT118 [hGIP(5-30)NH2-C12/5] (peptide)
peptide: Lauroyl-TFISDYSIAMDKIHQQDFVNWLLAQK-NH2
SMILES: CCCCCCCCCCCC(=O)N[C@H](C(=O)N[C@@H](Cc1ccccc1)C(=O)N[C@H](C(=O)N[C@@H](CO)C(=O)N[C@@H](CC(=O)O)C(=O)N[C@@H](Cc1ccc(O)cc1)C(=O)N[C@@H](CO)C(=O)N[C@H](C(=O)N[C@@H](C)C(=O)N[C@@H](CCSC)C(=O)N[C@@H](CC(=O)O)C(=O)N[C@@H](CCCCN)C(=O)N[C@H](C(=O)N[C@@H](Cc1c[nH]cn1)C(=O)N[C@@H](CCC(N)=O)C(=O)N[C@@H](CCC(N)=O)C(=O)N[C@@H](CC(=O)O)C(=O)N[C@@H](Cc1ccccc1)C(=O)N[C@H](C(=O)N[C@@H](CC(N)=O)C(=O)N[C@@H](Cc1c[nH]c2ccccc12)C(=O)N[C@@H](CC(C)C)C(=O)N[C@@H](CC(C)C)C(=O)N[C@@H](C)C(=O)N[C@@H](CCC(N)=O)C(=O)N[C@@H](CCCCN)C(N)=O)C(C)C)[C@@H](C)CC)[C@@H](C)CC)[C@@H](C)CC)[C@@H](C)O
B3: AT134 [hGIP(5-30)NH2[K16R; H18K; K30R]-C16/18] (peptide)
peptide: TFISDYSIAMDRIK(Palmitoyl)QQDFVNWLLAQR-NH2
modifications: N-terminus assumed
SMILES: CCCCCCCCCCCCCCCC(=O)NCCCC[C@H](NC(=O)[C@@H](NC(=O)[C@H](CCCNC(=N)N)NC(=O)[C@H](CC(=O)O)NC(=O)[C@H](CCSC)NC(=O)[C@H](C)NC(=O)[C@@H](NC(=O)[C@H](CO)NC(=O)[C@H](Cc1ccc(O)cc1)NC(=O)[C@H](CC(=O)O)NC(=O)[C@H](CO)NC(=O)[C@@H](NC(=O)[C@H](Cc1ccccc1)NC(=O)[C@@H](N)[C@@H](C)O)[C@@H](C)CC)[C@@H](C)CC)[C@@H](C)CC)C(=O)N[C@@H](CCC(N)=O)C(=O)N[C@@H](CCC(N)=O)C(=O)N[C@@H](CC(=O)O)C(=O)N[C@@H](Cc1ccccc1)C(=O)N[C@H](C(=O)N[C@@H](CC(N)=O)C(=O)N[C@@H](Cc1c[nH]c2ccccc12)C(=O)N[C@@H](CC(C)C)C(=O)N[C@@H](CC(C)C)C(=O)N[C@@H](C)C(=O)N[C@@H](CCC(N)=O)C(=O)N[C@@H](CCCNC(=N)N)C(N)=O)C(C)C
B4: AT135 [hGIP(5-30)NH2[K16R; K30R]-C16/5] (peptide)
peptide: Palmitoyl-TFISDYSIAMDRIHQQDFVNWLLAQR-NH2
SMILES: CCCCCCCCCCCCCCCC(=O)N[C@H](C(=O)N[C@@H](Cc1ccccc1)C(=O)N[C@H](C(=O)N[C@@H](CO)C(=O)N[C@@H](CC(=O)O)C(=O)N[C@@H](Cc1ccc(O)cc1)C(=O)N[C@@H](CO)C(=O)N[C@H](C(=O)N[C@@H](C)C(=O)N[C@@H](CCSC)C(=O)N[C@@H](CC(=O)O)C(=O)N[C@@H](CCCNC(=N)N)C(=O)N[C@H](C(=O)N[C@@H](Cc1c[nH]cn1)C(=O)N[C@@H](CCC(N)=O)C(=O)N[C@@H](CCC(N)=O)C(=O)N[C@@H](CC(=O)O)C(=O)N[C@@H](Cc1ccccc1)C(=O)N[C@H](C(=O)N[C@@H](CC(N)=O)C(=O)N[C@@H](Cc1c[nH]c2ccccc12)C(=O)N[C@@H](CC(C)C)C(=O)N[C@@H](CC(C)C)C(=O)N[C@@H](C)C(=O)N[C@@H](CCC(N)=O)C(=O)N[C@@H](CCCNC(=N)N)C(N)=O)C(C)C)[C@@H](C)CC)[C@@H](C)CC)[C@@H](C)CC)[C@@H](C)O
B5: AT133 [hGIP(5-30)NH2[K16R; H18K; K30R]-C16/5] (peptide)
peptide: Palmitoyl-TFISDYSIAMDRIKQQDFVNWLLAQR-NH2
SMILES: CCCCCCCCCCCCCCCC(=O)N[C@H](C(=O)N[C@@H](Cc1ccccc1)C(=O)N[C@H](C(=O)N[C@@H](CO)C(=O)N[C@@H](CC(=O)O)C(=O)N[C@@H](Cc1ccc(O)cc1)C(=O)N[C@@H](CO)C(=O)N[C@H](C(=O)N[C@@H](C)C(=O)N[C@@H](CCSC)C(=O)N[C@@H](CC(=O)O)C(=O)N[C@@H](CCCNC(=N)N)C(=O)N[C@H](C(=O)N[C@@H](CCCCN)C(=O)N[C@@H](CCC(N)=O)C(=O)N[C@@H](CCC(N)=O)C(=O)N[C@@H](CC(=O)O)C(=O)N[C@@H](Cc1ccccc1)C(=O)N[C@H](C(=O)N[C@@H](CC(N)=O)C(=O)N[C@@H](Cc1c[nH]c2ccccc12)C(=O)N[C@@H](CC(C)C)C(=O)N[C@@H](CC(C)C)C(=O)N[C@@H](C)C(=O)N[C@@H](CCC(N)=O)C(=O)N[C@@H](CCCNC(=N)N)C(N)=O)C(C)C)[C@@H](C)CC)[C@@H](C)CC)[C@@H](C)CC)[C@@H](C)O
B6: AT136 [hGIP(5-30)NH2-C14diacid/5] (peptide)
peptide: {C14 diacid}-TFISDYSIAMDKIHQQDFVNWLLAQK-NH2
SMILES: CC[C@H](C)[C@H](NC(=O)[C@H](CO)NC(=O)[C@H](Cc1ccc(O)cc1)NC(=O)[C@H](CC(=O)O)NC(=O)[C@H](CO)NC(=O)[C@@H](NC(=O)[C@H](Cc1ccccc1)NC(=O)[C@@H](NC(=O)CCCCCCCCCCCCC(=O)O)[C@@H](C)O)[C@@H](C)CC)C(=O)N[C@@H](C)C(=O)N[C@@H](CCSC)C(=O)N[C@@H](CC(=O)O)C(=O)N[C@@H](CCCCN)C(=O)N[C@H](C(=O)N[C@@H](Cc1c[nH]cn1)C(=O)N[C@@H](CCC(N)=O)C(=O)N[C@@H](CCC(N)=O)C(=O)N[C@@H](CC(=O)O)C(=O)N[C@@H](Cc1ccccc1)C(=O)N[C@H](C(=O)N[C@@H](CC(N)=O)C(=O)N[C@@H](Cc1c[nH]c2ccccc12)C(=O)N[C@@H](CC(C)C)C(=O)N[C@@H](CC(C)C)C(=O)N[C@@H](C)C(=O)N[C@@H](CCC(N)=O)C(=O)N[C@@H](CCCCN)C(N)=O)C(C)C)[C@@H](C)CC
B7: AT138 [hGIP(5-30)NH2-C18diacid/5] (peptide)
peptide: {C18 diacid}-TFISDYSIAMDKIHQQDFVNWLLAQK-NH2
SMILES: CC[C@H](C)[C@H](NC(=O)[C@H](CO)NC(=O)[C@H](Cc1ccc(O)cc1)NC(=O)[C@H](CC(=O)O)NC(=O)[C@H](CO)NC(=O)[C@@H](NC(=O)[C@H](Cc1ccccc1)NC(=O)[C@@H](NC(=O)CCCCCCCCCCCCCCCCC(=O)O)[C@@H](C)O)[C@@H](C)CC)C(=O)N[C@@H](C)C(=O)N[C@@H](CCSC)C(=O)N[C@@H](CC(=O)O)C(=O)N[C@@H](CCCCN)C(=O)N[C@H](C(=O)N[C@@H](Cc1c[nH]cn1)C(=O)N[C@@H](CCC(N)=O)C(=O)N[C@@H](CCC(N)=O)C(=O)N[C@@H](CC(=O)O)C(=O)N[C@@H](Cc1ccccc1)C(=O)N[C@H](C(=O)N[C@@H](CC(N)=O)C(=O)N[C@@H](Cc1c[nH]c2ccccc12)C(=O)N[C@@H](CC(C)C)C(=O)N[C@@H](CC(C)C)C(=O)N[C@@H](C)C(=O)N[C@@H](CCC(N)=O)C(=O)N[C@@H](CCCCN)C(N)=O)C(C)C)[C@@H](C)CC

Tests used:
human GIP receptor [1] = target: T1, human GIP receptor (human, UniProt P48546 22-466); experiment: 125I-hGIP competition binding, COS-7 cells expressing hGIPR;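 also: nonspecific binding taken as radioligand bound by untransfected cells, binding buffer with or without 2% HSA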
T1 construct: whole, on cells; also called hGIPR
T1 sequence (looked up): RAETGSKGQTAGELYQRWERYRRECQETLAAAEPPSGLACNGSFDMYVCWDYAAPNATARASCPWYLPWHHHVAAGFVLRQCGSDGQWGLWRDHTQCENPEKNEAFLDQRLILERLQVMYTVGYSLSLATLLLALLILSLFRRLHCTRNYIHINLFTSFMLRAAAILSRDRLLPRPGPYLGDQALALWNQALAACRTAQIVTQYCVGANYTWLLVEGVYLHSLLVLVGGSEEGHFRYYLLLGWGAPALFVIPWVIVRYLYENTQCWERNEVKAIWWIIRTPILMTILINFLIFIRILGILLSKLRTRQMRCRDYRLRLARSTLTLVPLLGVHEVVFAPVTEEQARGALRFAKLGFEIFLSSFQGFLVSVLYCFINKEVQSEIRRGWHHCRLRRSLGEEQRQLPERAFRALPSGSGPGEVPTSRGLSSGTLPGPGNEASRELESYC
Description: (§1) After incubation, the cells were washed twice in ice-cold binding buffer (+/−2% HSA) and lysed using 200 mM NaOH with 1% SDS for 30 min. Nonspecific binding was determined as the binding of radioactive ligand to untransfected cells.

human GIP receptor [2] = target: T1, human GIP receptor; experiment: 125I-hGIP competition binding, COS-7/hGIPR, 0.1% casein;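 also: nonspecific binding defined as radioligand binding measured on untransfected cells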
Description: as §1

human GIP receptor [3] = target: T1, human GIP receptor; experiment: IC50 with 2% HSA over IC50 with 0.1% casein, 125I-hGIP competition, COS-7/hGIPR
Description: as §1

human GIP receptor [4] = target: T1, human GIP receptor; experiment: 125I-hGIP competition binding, COS-7/hGIPR, 2% HSA;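 also: nonspecific binding defined as radioligand binding to untransfected cells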
Description: as §1

Binder | IC50 (human GIP receptor [1]) | log IC50 (human GIP receptor [1]) | IC50 (human GIP receptor [2]) | logIC50 (human GIP receptor [2]) | Fold change HSA (2%)/Casein (0.1%) (human GIP receptor [3]) | IC50 (human GIP receptor [4]) | logIC50 (human GIP receptor [4])
B1 | 286 nM | -6.5 log M | 286 nM | -6.5 log M | 1.9 fold | 555 nM | -6.3 log M
B2 | 102 nM | -7 log M | 115 nM | -6.9 log M | 7.7 fold | 881 nM | -6.1 log M
B3 | 882 nM | -6.1 log M | 882 nM | -6.1 log M | 5.5 fold | 4890 nM | -5.3 log M
B4 | 5940 nM | -5.2 log M | 5940 nM | -5.2 log M | 0.2 fold | 977 nM | -6 log M
B5 | 1720 nM | -5.8 log M | 1720 nM | -5.8 log M | 1.3 fold | 2200 nM | -5.7 log M
B6 | 45.4 nM | -7.3 log M | 45 nM | -7.3 log M | 15.7 fold | 713 nM | -6.1 log M
B7 | 2640 nM | -5.6 log M | 2640 nM | -5.6 log M | 3.8 fold | 10100 nM | -5 log M
